Assay [1] has as its target T1, human PTK7 on human cancer cell lines (human, UniProt Q13308 31-1070).
T1 construct: Endogenous PTK7 of human tumour cell lines; also called PTK7 on A-431, NCI-H520, NCI-N87, SK-OV-3, BT-20, HCC1954, NCI-H226, NCI-H358, HCT116, PC-3, NCI-H292, NCI-H1975 cells
T1 sequence: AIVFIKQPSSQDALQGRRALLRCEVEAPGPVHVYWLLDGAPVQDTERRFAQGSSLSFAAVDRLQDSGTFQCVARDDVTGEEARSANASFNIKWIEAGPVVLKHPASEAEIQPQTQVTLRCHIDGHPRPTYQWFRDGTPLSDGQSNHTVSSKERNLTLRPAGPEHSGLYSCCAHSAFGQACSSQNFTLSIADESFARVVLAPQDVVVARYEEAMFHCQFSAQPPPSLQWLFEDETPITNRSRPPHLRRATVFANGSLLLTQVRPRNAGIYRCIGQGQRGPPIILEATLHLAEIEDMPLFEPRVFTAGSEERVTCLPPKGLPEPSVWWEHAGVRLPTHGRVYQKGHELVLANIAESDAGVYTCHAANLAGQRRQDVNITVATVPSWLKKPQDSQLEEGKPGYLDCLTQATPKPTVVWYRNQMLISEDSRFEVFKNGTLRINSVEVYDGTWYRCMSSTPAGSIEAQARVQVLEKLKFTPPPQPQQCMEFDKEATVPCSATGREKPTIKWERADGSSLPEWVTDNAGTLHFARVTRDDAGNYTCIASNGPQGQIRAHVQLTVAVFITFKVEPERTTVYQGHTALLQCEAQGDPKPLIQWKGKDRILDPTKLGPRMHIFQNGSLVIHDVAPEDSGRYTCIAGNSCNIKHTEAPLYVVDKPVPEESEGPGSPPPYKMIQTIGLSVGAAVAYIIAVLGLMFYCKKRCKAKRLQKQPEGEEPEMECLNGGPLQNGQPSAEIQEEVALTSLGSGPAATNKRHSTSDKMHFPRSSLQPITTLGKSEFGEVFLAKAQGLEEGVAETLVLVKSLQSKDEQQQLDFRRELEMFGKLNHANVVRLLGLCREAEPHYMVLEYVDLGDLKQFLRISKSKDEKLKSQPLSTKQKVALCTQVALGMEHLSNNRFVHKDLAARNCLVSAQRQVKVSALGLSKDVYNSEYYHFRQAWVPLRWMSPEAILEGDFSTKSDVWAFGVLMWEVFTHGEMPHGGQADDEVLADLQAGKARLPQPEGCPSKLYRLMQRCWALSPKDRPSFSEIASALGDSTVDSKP
As to the kind of experiment: flow cytometry, NCI-H292 cells, Ab 5 ug/mL. How it is done:
(§1) The binding activity of anti-PTK7 antibodies to cancer cell lines was verified by flow cytometry. […] Purified anti-PTK7 antibody with a concentration of 5 μg/mL was added to each well and was incubated at 4° C. for 30 minutes. […] The cells were collected, and the mean fluorescence intensity (MFI) was determined. Human IgG1 was used as ISO control.
(In general: In flow cytometry, cells or beads pass a laser one at a time.)

Assay [2] addresses T2, dog PTK7 on dog cancer cell lines (dog, UniProt A0A8I3N574 31-1070).
T2 construct: whole, on cells; Endogenous protein on dog tumour cell lines; also called PTK7 on CMT-U27 and D-17 cells; dog cancer cells
T2 sequence: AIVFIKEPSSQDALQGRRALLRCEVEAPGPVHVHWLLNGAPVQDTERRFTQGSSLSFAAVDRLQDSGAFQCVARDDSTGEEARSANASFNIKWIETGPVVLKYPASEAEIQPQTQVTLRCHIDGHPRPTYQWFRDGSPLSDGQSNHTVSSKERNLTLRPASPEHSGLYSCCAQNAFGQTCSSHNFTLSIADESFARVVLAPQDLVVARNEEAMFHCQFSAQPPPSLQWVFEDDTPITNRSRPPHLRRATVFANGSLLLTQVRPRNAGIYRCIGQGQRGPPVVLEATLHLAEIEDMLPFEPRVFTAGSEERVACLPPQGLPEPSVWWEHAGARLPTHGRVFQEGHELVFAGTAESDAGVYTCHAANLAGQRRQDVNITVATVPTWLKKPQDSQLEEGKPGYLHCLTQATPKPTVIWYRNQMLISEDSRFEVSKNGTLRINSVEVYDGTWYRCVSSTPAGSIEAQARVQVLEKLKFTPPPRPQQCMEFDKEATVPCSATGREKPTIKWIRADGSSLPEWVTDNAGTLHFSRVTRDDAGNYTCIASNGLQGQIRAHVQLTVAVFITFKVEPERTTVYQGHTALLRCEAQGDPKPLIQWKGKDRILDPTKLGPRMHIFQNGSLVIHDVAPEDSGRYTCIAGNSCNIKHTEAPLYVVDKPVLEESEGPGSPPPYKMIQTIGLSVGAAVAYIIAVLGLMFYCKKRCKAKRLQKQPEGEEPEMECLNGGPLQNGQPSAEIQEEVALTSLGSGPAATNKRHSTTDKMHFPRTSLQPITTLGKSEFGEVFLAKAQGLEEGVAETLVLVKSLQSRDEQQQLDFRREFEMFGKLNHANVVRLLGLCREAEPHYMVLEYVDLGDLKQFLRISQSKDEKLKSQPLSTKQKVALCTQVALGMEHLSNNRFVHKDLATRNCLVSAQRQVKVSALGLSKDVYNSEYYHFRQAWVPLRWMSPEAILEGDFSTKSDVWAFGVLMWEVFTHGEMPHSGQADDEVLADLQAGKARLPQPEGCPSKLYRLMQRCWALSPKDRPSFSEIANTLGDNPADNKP
Put plainly: flow cytometry, CMT-U27 dog cells, Ab 5 ug/mL. How it is done: as §1

B1: 1F2 (antibody, V domains shown)
VH: QVQLVQSGGGLVQPGGSLRLSCAASGFTFSRYEMNWVRQAPGKGLEWVSYINSIGSAINYADSVKGRFTISRDNAKNSLYLQMRSLRAEDTAVYYCVREDNWNPGYWGQGTLVTVSS
VL: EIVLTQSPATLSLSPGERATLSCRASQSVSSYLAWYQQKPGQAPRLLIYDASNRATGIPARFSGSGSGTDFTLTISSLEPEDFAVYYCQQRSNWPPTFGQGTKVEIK
notes: also called anti-PTK7 antibody 1F2
For B1, the MFI in assay [1] was 69300; in assay [2], 45800.

B2: 1A7 (antibody, human IgG1, V domains shown)
VH: QVQLVESGGGVVQPGRSLRLSCAASGFTFSNYGMHWVRQAPGKGLEWVAVIYYDGSNKFYADSVKGRFTISRDNSKNTLYLQMSSLRAEDTAVYYCARDVAPPGSRAEYFHHWGQGTLVTVSS
VL: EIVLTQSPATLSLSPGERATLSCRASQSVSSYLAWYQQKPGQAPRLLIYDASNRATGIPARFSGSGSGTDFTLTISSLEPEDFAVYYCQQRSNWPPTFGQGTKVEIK
notes: also called anti-PTK7 antibody 1A7
For the molecule B2, the MFI was found to be 43500 in assay [1] and 56700 in assay [2].

B3: 2A5 (antibody, V domains shown)
VH: QVQLVQSGGGVVQPGRSLRLSCAASGFTFSNYGMHWVRQAPGKGLEWVAVIWYDGRNKYYADSVKGRFTISRDNSKNTLYLQMNSLRAEDTAVYYCARDVAPAGSRAEYFQNWGQGTLVTVSS
VL: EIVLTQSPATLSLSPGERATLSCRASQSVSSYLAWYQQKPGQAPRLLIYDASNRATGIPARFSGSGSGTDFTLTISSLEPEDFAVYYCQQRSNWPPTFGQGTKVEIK
notes: also called anti-PTK7 antibody 2A5
With B3, the values for the MFI in assay [1] and in assay [2] were 92000 and 76400, respectively.

B4: 2D11 (antibody, V domains shown)
VH: QVQLVESGGGVVQPGRSLRLSCAASGFTFSSYGMHWVRQAPGKGLEWVAVIFYDGSNKYYADSVKGRFTISRDNSKNTLYLQMNSLRAEDTSVYYCARDVAAPGSRAEYFQNWGQGTLVTVSS
VL: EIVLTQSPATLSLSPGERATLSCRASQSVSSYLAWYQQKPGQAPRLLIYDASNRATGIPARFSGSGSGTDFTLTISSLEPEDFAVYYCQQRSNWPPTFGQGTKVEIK
notes: also called anti-PTK7 antibody 2D11
B4: the MFI was found to be 134000 in assay [1] and 72200 in assay [2].

B5: 2F5 (antibody, V domains shown)
VH: QVQLVESGGGVVQPGRSLRLSCVASGFTFSNYGMHWVRQAPGKGLEWVAIIYYDGSNKYYADSVKGRFTISRDNSKNTLYLQMNSLRAEDTAVYYCARDVAAAGSRAEYLHHWGQGTLVTVSS
VL: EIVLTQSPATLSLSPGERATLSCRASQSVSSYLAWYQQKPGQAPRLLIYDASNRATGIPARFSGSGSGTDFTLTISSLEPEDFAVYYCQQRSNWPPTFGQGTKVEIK
notes: also called anti-PTK7 antibody 2F5
On to B5, for which the MFI amounted to 44500 in assay [1] and 81300 in assay [2].

B6: 1A11 (antibody, V domains shown)
VH: QVQLVQSGPGLVKPSETLSLTCTVSGGSINSYYWNWIRQPPGKGLEWIGYIYYSGSTNYNPSLKSRVTISVDTSKNQFSLKLSSVTAADTAVYYCARDPHDYIRGHFDLWGRGTLFTVSS
VL: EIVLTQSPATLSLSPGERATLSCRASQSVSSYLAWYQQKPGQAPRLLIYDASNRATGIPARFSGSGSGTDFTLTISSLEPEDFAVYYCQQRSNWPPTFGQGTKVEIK
notes: also called anti-PTK7 antibody 1A11
Regarding B6, the MFI in assay [1] was found to be 125000; in assay [2], 75600.

B7: 3C4 (antibody, V domains shown)
VH: QVQLEQSRAEVKKPGESLRISCKGSGYSFTSYWISWVRQMPGKGLEWMGRIDPSDSYTNYNPSFQGHVTISADKSISTAYLQWSSLKASDTAMYYCARRDGSYFDFDYWGQGTLVTVSS
VL: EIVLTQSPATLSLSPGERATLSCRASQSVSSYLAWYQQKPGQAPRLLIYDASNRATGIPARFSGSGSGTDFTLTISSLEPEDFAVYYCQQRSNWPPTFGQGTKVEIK
notes: also called anti-PTK7 antibody 3C4
Consider B7, for which the MFI in assay [1] was 92400; in assay [2], 37400.

B8: 3E6 (antibody, V domains shown)
VH: QVQLVESGAEVKKPGESLRISCRGSGYSFTSYWISWVRQMPGKGLEWMGRIDPSDSYTKYSPSFQGHVTISADKSISTAYLQWSSLKASDTAMYYCARRDGDYFDFDYWGQGTLVTVSS
VL: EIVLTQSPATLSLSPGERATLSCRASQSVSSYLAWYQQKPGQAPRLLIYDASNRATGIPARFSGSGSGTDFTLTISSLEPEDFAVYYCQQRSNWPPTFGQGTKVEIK
notes: also called anti-PTK7 antibody 3E6
B8: the results for the MFI in assay [1] and in assay [2] were 141000 and 94500, respectively.

The values above are taken from US20260250421A1 (BIOCYTOGEN PHARMACEUTICALS BEIJING, published 2026).
